Test results published in the nanobody polyreactivity screen of Harvey et al. (2022).

Experiment: yeast display, Sf9 membrane polyspecificity reagent, FACS + sequencing; frameworks hold sequencing errors
In short: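 Nanobodies came from a synthetic yeast display library in Saccharomyces cerevisiae BJ5465, induced with galactose for 36–48 hours and stained for 1 hour at 4 °C with 10% biotinylated, detergent-solubilized Sf9 membrane reagent. Cells were enriched on streptavidin microbeads and then FACS-sorted, with low and high (top ~1%) gates set on anti-HA fluorescence for expression and streptavidin fluorescence for reagent binding. Each polyreactivity label reflects the gate a clone came from. Genes were amplified by colony PCR, sequenced by MiSeq 2 × 250 and filtered by CDR length.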

Row | Sequence | polyreactivity (PSR sort gate)
1 | QVQLVESGGGLVQAGGSLRLSCAASGFTFQWYAMGWYRQAPGKERELVAGITSGASTNYADSVKGRFTISRDNAKNNVYLQMNSLKPEDTAVYYCAAGYKSRYYRNSGYYWGQGTQVTVSS | high polyreactivity
2 | QVQLVESGGGLVQAGGSLRLSCAASGFTFQWYAMGWYRQAPGKERELVAGITSGASTNYADSVKGRFTISRDNAKNTVYLQMNSLKPEDTAVYYCAARRWREGARYSYWGQGTQVTVSS | high polyreactivity
3 | QVQLVESGGGLVQAGGSLRLSCAASGFTFQYYAMGCYRPAPGKERELVATISSTDNTYYADSVKGRFTISRDNAKNTVYLQMFSLKPEDTAVYYCNAAYVYGYQARGGYWGQGTQVTVSS | high polyreactivity
4 | QVQLVESGGGLVQAGGSLRLSCAASGFTFQYYAMGWYRQAPGKERELVAAITWSGTSTYYADSVKGRFTISRDNAKNTVYLQMNSLKPEDTAVYYCNKYSPYITYDYDYWGQGTQVTVSS | high polyreactivity
5 | QVQLVESGGGLVQAGGSLRLSCAASGFTFRAYAMGWYRQAPGKERELVATITRSGGSTFYADSVKGRFTISRDNAKNTVYLQMNSLKPEDTAVYYCAAVYRFAFRYAWYKYDYWGQGTQVTVSS | high polyreactivity
6 | QVQLVESGGGLVQAGGSLRLSCAASGFTFRDNAMGRYRQAPGKERELVAAITWDGGSTYYADSVKGRFTISRDNEKNTVYLQMNSLKPEDTAVYYCAASRYYPRYFKRYYYWGQGTQVTVSS | high polyreactivity
7 | QVQLVESGGGLVQAGGSLRLSCAASGFTFRDYAMGWYRQAPGKERELVAAISRSGDSTYYADSVKGRFTISRDNAKNTVYLQMNSLKPEDTAVYDYAAKRRYTTYDYWGQGTQVTVSS | high polyreactivity
8 | QVQLVESGGGLVQAGGSLRLSCAASGFTFRGNAMGWYRQAPGKERELVAAITSSDDSTYYADSVKGRFTISRDNAKNTVYLQMNSLKPEDTAVYYCAAVANGYWTYEYWGQGTQVTVSS | low polyreactivity
9 | QVQLVESGGGLVQAGGSLRLSCAASGFTFRGYAMGWYRPAPGKERELVAAITVRGGRTYYADSVKGRFTISRDNAKNTVYLQMNSLKPEETALYYCAKPVDRYTYSLYQQYDYWGQGTQVTVSS | high polyreactivity
10 | QVQLVESGGGLVQAGGSLRLSCAASGFTFRGYAMGWYRQAPGKERELVAAITAGGGSTSYADSVKGRFTISRDNAKNTVYLQMNSLKPEDTGVYYCARRPGTRTYLSKWGSKYDYWGQGTQVTVSS | high polyreactivity
11 | QVQLVESGGGLVQAGGSLRLSCAASGFTFRGYVMGWYRQAPGKERELVAAITNIGTSTYYADSVKGRFTISRDNAKNTVYLQMNSLNPEDTAVYYCAARLRSIFYDWGLGTQVTVSS | low polyreactivity
12 | QVQLVESGGGLVQAGGSLRLSCAASGFTFRHYAMGWYRQAPGKARQLVAAITKSGDSTYYADSVKWRFTISRDIAKKTVYLQMNSLNPEDTEVYYCATPYTLSRADNYWGQGTQVTVSS | low polyreactivity
13 | QVQLVESGGGLVQAGGSLRLSCAASGFTFRIYAMGWYRQAPGKERELVAAISWSGGSTYYADSVKGRFTISRDNAKNTVYLQMNSLKPEDTAVYYCATDSHRSQRHYAYDGDYWGQGTQVTVSS | high polyreactivity
14 | QVQLVESGGGLVQAGGSLRLSCAASGFTFRKYAMGWYRPAPGKERELVAAITANGGRTYYADSVKGRFTISRDNAKNTVYLQMNSLKPEDTAVYYCARDWGKSEYDYWGQGTQVTVSS | high polyreactivity
15 | QVQLVESGGGLVQAGGSLRLSCAASGFTFRKYAMGWYRQAPGKERELVAVINIVGSTYYADSVKGRFTISRDNAKNTVYLQMNSRKPEDTAVYYCAADWSYLLKYYWYGGFNYWGQGTQVTVSS | high polyreactivity
16 | QVQLVESGGGLVQAGGSLRLSCAASGFTFRLYAMGWYRQAPGIERELVAAISSGGRTYYADSVKGRFTISRDNAKNTVYFQMNSLKPEDTAVNYCAVYPRDAERYGYWGQGSQVTVSS | high polyreactivity
17 | QVQLVESGGGLVQAGGSLRLSCAASGFTFRLYAMGWYRQAPGKERELVAAISSRGTTTYYADSVKGRFTNSRDNAKKTGYLQMNSLKPEDTAVYNCNKEYTSYGYDLEYDYWGQGTQVTVSS | low polyreactivity
18 | QVQLVESGGGLVQAGGSLRLSCAASGFTFRNNAMGWYRQAPGKERELVAAISKRGSSTYYADSVKGRFTISRDNAKNTVYLQMNSLKPEDTAVYYCAASWLGASGIRYDYWGQGTQVTVSS | high polyreactivity
19 | QVQLVESGGGLVQAGGSLRLSCAASGFTFRQYAMGGYGQAPGKEREWVASIRNGGSTNYADSVKGRFTISRDNAKNTDYFQMITLKPEDTALYYCSQRHSRTNMYYWGQGTQVTVSS | high polyreactivity
20 | QVQLVESGGGLVQAGGSLRLSCAASGFTFRQYAMGWYRQAPGKERELVAAISRSGSRTYYADSVKGRFTISRDNAKNTVYLQMNSLKPEDTAVYYCNAVFSTFTGEYYWGQGSQVTVSS | high polyreactivity
21 | QVQLVESGGGLVQAGGSLRLSCAASGFTFRRNGRGWYRPAPGKERELVAAIRGSDGSTYYADSVKGRFTISRDTAKNTVYLLMNSLKPADTAVYYCIVVGKGLYRKMGYWGQGTQVTVSS | high polyreactivity
22 | QVQLVESGGGLVQAGGSLRLSCAASGFTFRRYAKGWYRQATGKEREFVAAISIRGGRTNYADSVKGRFTISRDNAKNTVYLQMNSLKPEDTAVYYCAADGVYALDVESDYWGQGTQVTVSS | high polyreactivity

Row | Sequence | polyreactivity (PSR sort gate)
23 | QVQLVESGGGLVQAGGSLRLSCAASGFTFRRYAMGWYRQAPGKERELVAAISRRGVTTYYADSVKGRFTISRDNAKNTVYLQMISLKPEDTAVYYCAADHNPSIGDDSWGQGTQVTVSS | high polyreactivity
24 | QVQLVESGGGLVQAGGSLRLSCAASGFTFRRYAMGWYRQAPGKERELVAAISYSGGSTNYADSVKGRFTISRDNAKNTVYLQMNSLKPEDTAVYYCATTSRAWGRGYDYWGQGTQVTVSS | low polyreactivity
25 | QVQLVESGGGLVQAGGSLRLSCAASGFTFRRYAMGWYRQAPGKETELVAVITTAGSTNYADSVKGRFTISRDNAKNTVHLQMNSLIPEDTAVYYCATDNGTRKRRYDYWGQGTQVTVSS | low polyreactivity
26 | QVQLVESGGGLVQAGGSLRLSCAASGFTFRRYDMGWYRQAPGKERELVAAITASGGNTYYADSVKGRFTISRDNAKNTVYLQMNSLKPEDTAVYYCAARQYRYKYDYWGQGTQVTVSS | high polyreactivity
27 | QVQLVESGGGLVQAGGSLRLSCAASGFTFRSNAMGWYRQAPGKERELVAAISYSGDSTYYADSVKGRFTISRDNAKNTVYLQMNSLKPEDTAVYYCNAVGSGYRSWYDYWGQGTQVTVSS | high polyreactivity
28 | QVQLVESGGGLVQAGGSLRLSCAASGFTFRSNAMGWYRQAPGKERELVAAITRGGGSTYYADSVKGRFTISRDNEKNTVYLQMNSLKPEDTAVYYCAAGGFRTSRRDYWGQGTQVTVSS | high polyreactivity
29 | QVQLVESGGGLVQAGGSLRLSCAASGFTFRSYAMGWYRQAPGKEREFVAAINGRSGSTYADSVKGRFTISRDNAKNTVYLQMTSLKPEDTAVYYCAARVRRGSTQAQYYYWGQGTQVTVSS | high polyreactivity
30 | QVQLVESGGGLVQAGGSLRLSCAASGFTFRSYTMGWYRQAPGKERELVARITRSCGNTYYADSVKGRFTISRDNAKNTVYVQMNSLKPEDTEGYYCASVYWGKYSAGNLLEYDYWGQGTQVTVSS | high polyreactivity
31 | QVQLVESGGGLVQAGGSLRLSCAASGFTFRSYVMGWYRQAPGKERELVASISSGGITKYADSVKGRFTISRDNAKNTVYLQMNSLKPEDTAVYYCNARTYSNTVLNYGLQYGYDYWGQGTQVTVSS | high polyreactivity
32 | QVQLVESGGGLVQAGGSLRLSCAASGFTFRTYAKGWYRQAPAKERELVADISGSGGSTYYADSVKGRFTISRDNAKNTVYLQMNSLKPEDTAVYYCAADYASWSNWGYEYWGQGTQVTVSS | high polyreactivity
33 | QVQLVESGGGLVQAGGSLRLSCAASGFTFRTYAMGRYRQAPGTERELVAAINVSGGTYYADSVKGRFTISRDNAKNTVYLQMNSLKPEDSAVYYCTANRFRTGFDYWGQGTQVTVSS | low polyreactivity
34 | QVQLVESGGGLVQAGGSLRLSCAASGFTFRTYAMGWYRQAPGKERELVAAITGSGGSTYYADSVKGRFTISRDNAKNTVYLQMNSLKPEDTAVYYCNAVERSAFRGVRFDYDYWGQGTQVTVSS | high polyreactivity
35 | QVQLVESGGGLVQAGGSLRLSCAASGFTFRTYAMGWYRQAPGKEREYVAAINGRSGSTYADSVKGRFTISRDNAKNTVYLQMISLKPEDTAVYYCAARVRRGSTQAQFYYWGQGTQVTVSS | high polyreactivity
36 | QVQLVESGGGLVQAGGSLRLSCAASGFTFRVYAMGWYRPAPGKERELVAAISVRGDSTYYADSVKGRFTISRDNAKNTVYLQMNSLKPEDTAVYYCNAALLGKQYYSNPNYDYWGQGTQVTVSS | high polyreactivity
37 | QVQLVESGGGLVQAGGSLRLSCAASGFTFRVYAMGWYRQAPGKERELVAAITNSGGNTYYADSVKGRFTISRDNAKNTVYLQMNSLKPEDTAVYYCNRRYRYRFGYWGQGTQVTVSS | high polyreactivity
38 | QVQLVESGGGLVQAGGSLRLSCAASGFTFRVYAMGWYRQAPGKERELVAAITRGGSTKYADSVKGRFTISRDNAKNTVYLQMNSLKPEDTAVYYCAARYNGKLNWGQGTQVSVSS | high polyreactivity
39 | QVQLVESGGGLVQAGGSLRLSCAASGFTFRWYAMGWYRQAPGKERELVAAITSSGGSTYYADSVKGRFTISRDNAKNTVYLQMNSLKPEDTAVYYCNKRFLDLSYHDYDYWGQGTQVTVSS | high polyreactivity
40 | QVQLVESGGGLVQAGGSLRLSCAASGFTFRWYAMGWYRQAPGKERELVARIRGSGGNTYYADSVKGRFTISRDNAKNTVYLQMNSLKPEDTAVYYCAAMQSPTRSFIYRFDYWGQGTQVTVSS | high polyreactivity
41 | QVQLVESGGGLVQAGGSLRLSCAASGFTFRYNAMGWYRQAPGKERELVAAISRSGGRTYYADSVKGRFTIARDNAKNTVYLQMNSLKPEDTAVYYCAAVAARITGFGYWGQGTQVTVSS | high polyreactivity
42 | QVQLVESGGGLVQAGGSLRLSCAASGFTFRYNAMGWYRQAPGKERELVAAITWRGGRTYYADSVKGRFTISRDNAKNTVYLQMNSLKPEDTAVYYCAVYRTSTRYVVDSDYWGQGTQVTVSS | low polyreactivity
43 | QVQLVESGGGLVQAGGSLRLSCAASGFTFRYNAMGWYRQAPGKKGSWVAAISRTGGSTYYADSVKGRFTISRDNAKNTVYLQMNSLKPEDTAVYYCATYSSRQRKSSYYYWGQGTQVTVSS | high polyreactivity
